Laboratory results published in patent US20250339570A1.

target: CD46 (UniProt P15529); experiment: magnetic bead radioligand binding assay; CD46 on Ni-NTA beads, 10 ng radioimmunoconjugate, bead activity/standard

Target binding fraction, > 75%:
225Ac-Macropa-PEG0-YS5 (antibody)
225Ac-Macropa-PEG4-YS5 (antibody)
225Ac-Macropa-PEG8-YS5 (antibody)
